Paper PMC8571082 (2021)

Tests used:
[1] = target: T1, factor inhibiting HIF-1 (FIH-1), full-length (human, UniProt Q9NWT6 1-349); test: ITC; -αKG, -EDTA
[2] = target: T1, factor inhibiting HIF-1 (FIH-1), …; test: ITC; +αKG, -EDTA
[3] = target: T1, factor inhibiting HIF-1 (FIH-1), …; test: ITC; -αKG, +EDTA
[4] = target: T1, factor inhibiting HIF-1 (FIH-1), …; test: ITC; +αKG, +EDTA

T1 sequence (Q9NWT6 whole entry): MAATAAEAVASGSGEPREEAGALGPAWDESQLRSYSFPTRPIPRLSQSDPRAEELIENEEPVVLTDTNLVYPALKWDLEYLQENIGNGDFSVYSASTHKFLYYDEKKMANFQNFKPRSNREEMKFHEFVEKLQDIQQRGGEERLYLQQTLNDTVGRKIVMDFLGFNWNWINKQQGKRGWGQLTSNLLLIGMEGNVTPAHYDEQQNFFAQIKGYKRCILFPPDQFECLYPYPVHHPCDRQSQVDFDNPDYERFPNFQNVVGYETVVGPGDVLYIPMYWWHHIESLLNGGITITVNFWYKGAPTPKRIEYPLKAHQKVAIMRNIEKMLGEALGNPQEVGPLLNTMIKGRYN

B1: Mint3NT, N-terminal fragment (1–214) of Mint3 (domain or fragment)
chain: MDFPTISRSPSGPPAMDLEGPRDILVPSEDLTPDSQWDPMPGGPGSLSRMELDESSLQELVQQFEALPGDLVGPSPGGAPCPLHIATGHGLASQEIADAHGLLSAEAGRDDLLGLLHCEECPPSQTGPEEPLEPAPRLLQPPEDPDEDSDSPEWVEGASAEQEGSRSSSSSPEPWLETVPLVTPEEPPAGAQSPETLASYPAPQEVPGPCDHED
Kd [1]: 3400 nM
Kd [2]: 1000 nM
Kd [3]: 8100 nM
Kd [4]: 2200 nM
